Data as given in publication PMC8523659 (Scientific Reports, 2021).

Experiments:
human serum albumin [1] = molecular target: T1, human serum albumin (Homo sapiens, UniProt P02768); test: SPR; Biacore T200; HSA immobilised on CM5 chip by amine coupling (~1000 RU); increasing concentrations of antibodies injected at 30 μl/min; PBS with 0.05% Tween-20; global fit, 1:1 Langmuir model; settings: both partners purified
T1 construct: human serum albumin (HSA), purchased from Sigma-Aldrich Japan; dissolved in phosphate buffer and dialysed; also called HSA; source: bought: Sigma-Aldrich Japan

human serum albumin [2] = molecular target: T1, human serum albumin; test: as above; settings: both partners purified; remark: listed apart in the source

Binder	Kd (human serum albumin [1]) [nM]	koff (human serum albumin [1]) [s⁻¹]	kon (human serum albumin [1]) [M⁻¹ s⁻¹]	Kd (human serum albumin [2]) [nM]
single-domain VHH antibody Z18 (VHH, pRA2 vector with N-terminal pelB signal peptide; also called wild-type Z18; source: E. coli BL21 (DE3), purified (Ni-NTA, SEC); not shown: hexa-histidine, C-terminal, kept) VHH: QVQLVESGGGLVQAGDSLRLSCAASGRTFSGYAMGWFRQAPGKEREFVARINWSGTLTYYADSVKGRFTGSRDNAKNTVYLQMNSLKPEDTAVYYCAQRGDSGSNYDPSGYSYWGQGTQVTVSS	334	0.259	774000	175
Z18-N85S (VHH, IMGT numbering; the methods describe vector and expression for Z18 and Z26; source: E. coli BL21 (DE3), purified (Ni-NTA, SEC)) VHH: QVQLVESGGGLVQAGDSLRLSCAASGRTFSGYAMGWFRQAPGKEREFVARINWSGTLTYYADSVKGRFTGSRDNAKSTVYLQMNSLKPEDTAVYYCAQRGDSGSNYDPSGYSYWGQGTQVTVSS	344	0.238	692000	–
Z18-I56V (VHH, IMGT numbering; the methods describe vector and expression for Z18 and Z26; source: E. coli BL21 (DE3), purified (Ni-NTA, SEC)) VHH: QVQLVESGGGLVQAGDSLRLSCAASGRTFSGYAMGWFRQAPGKEREFVARVNWSGTLTYYADSVKGRFTGSRDNAKNTVYLQMNSLKPEDTAVYYCAQRGDSGSNYDPSGYSYWGQGTQVTVSS	296	0.22	741000	–
Z18-V2L (VHH, IMGT numbering; the methods describe vector and expression for Z18 and Z26; source: E. coli BL21 (DE3), purified (Ni-NTA, SEC)) VHH: QLQLVESGGGLVQAGDSLRLSCAASGRTFSGYAMGWFRQAPGKEREFVARINWSGTLTYYADSVKGRFTGSRDNAKNTVYLQMNSLKPEDTAVYYCAQRGDSGSNYDPSGYSYWGQGTQVTVSS	366	0.276	754000	–
Z18-R50L (VHH, IMGT numbering; the methods describe vector and expression for Z18 and Z26; source: E. coli BL21 (DE3), purified (Ni-NTA, SEC)) VHH: QVQLVESGGGLVQAGDSLRLSCAASGRTFSGYAMGWFRQAPGKELEFVARINWSGTLTYYADSVKGRFTGSRDNAKNTVYLQMNSLKPEDTAVYYCAQRGDSGSNYDPSGYSYWGQGTQVTVSS	412	0.284	689000	–
Z18-G32D (VHH, IMGT numbering; the methods describe vector and expression for Z18 and Z26; source: E. coli BL21 (DE3), purified (Ni-NTA, SEC)) VHH: QVQLVESGGGLVQAGDSLRLSCAASGRTFSDYAMGWFRQAPGKEREFVARINWSGTLTYYADSVKGRFTGSRDNAKNTVYLQMNSLKPEDTAVYYCAQRGDSGSNYDPSGYSYWGQGTQVTVSS	172	0.12	696000	–
Z18-R50L/G78A/S133R (VHH, IMGT numbering; the methods describe vector and expression for Z18 and Z26; source: E. coli BL21 (DE3), purified (Ni-NTA, SEC)) VHH: QVQLVESGGGLVQAGDSLRLSCAASGRTFSGYAMGWFRQAPGKELEFVARINWSGTLTYYADSVKGRFTASRDNAKNTVYLQMNSLKPEDTAVYYCAQRGDSGSNYDPSGYRYWGQGTQVTVSS	447	0.785	1.76e+06	–
Z18-G32D/R50L/G78A/S133R (VHH, IMGT numbering; the methods describe vector and expression for Z18 and Z26; source: E. coli BL21 (DE3), purified (Ni-NTA, SEC)) VHH: QVQLVESGGGLVQAGDSLRLSCAASGRTFSDYAMGWFRQAPGKELEFVARINWSGTLTYYADSVKGRFTASRDNAKNTVYLQMNSLKPEDTAVYYCAQRGDSGSNYDPSGYRYWGQGTQVTVSS	797	0.412	516000	–
Z18-G78A (VHH, IMGT numbering; the methods describe vector and expression for Z18 and Z26; source: E. coli BL21 (DE3), purified (Ni-NTA, SEC)) VHH: QVQLVESGGGLVQAGDSLRLSCAASGRTFSGYAMGWFRQAPGKEREFVARINWSGTLTYYADSVKGRFTASRDNAKNTVYLQMNSLKPEDTAVYYCAQRGDSGSNYDPSGYSYWGQGTQVTVSS	7110	1.1	155000	–

The next binders have a lower Kd (human serum albumin [1]) than those just listed; values first:

Kd (human serum albumin [1]) [nM]	koff (human serum albumin [1]) [s⁻¹]	kon (human serum albumin [1]) [M⁻¹ s⁻¹]	Kd (human serum albumin [2]) [nM]	Binder
67.2	0.078	1.16e+06	–	Z18-S133R (VHH, IMGT numbering; the methods describe vector and expression for Z18 and Z26; source: E. coli BL21 (DE3), purified (Ni-NTA, SEC)) VHH: QVQLVESGGGLVQAGDSLRLSCAASGRTFSGYAMGWFRQAPGKEREFVARINWSGTLTYYADSVKGRFTGSRDNAKNTVYLQMNSLKPEDTAVYYCAQRGDSGSNYDPSGYRYWGQGTQVTVSS
12.9	0.096	7.45e+06	–	Z18-Y114F (VHH, IMGT numbering; the methods describe vector and expression for Z18 and Z26; source: E. coli BL21 (DE3), purified (Ni-NTA, SEC)) VHH: QVQLVESGGGLVQAGDSLRLSCAASGRTFSGYAMGWFRQAPGKEREFVARINWSGTLTYYADSVKGRFTGSRDNAKNTVYLQMNSLKPEDTAVYYCAQRGDSGSNFDPSGYSYWGQGTQVTVSS
0.54	0.000816	1.51e+06	–	single-domain VHH antibody Z26 (VHH, differs from Z18 at nine residues; pRA2 vector with N-terminal pelB signal peptide; also called wild-type Z26; source: E. coli BL21 (DE3), purified (Ni-NTA, SEC); not shown: hexa-histidine, C-terminal, kept) VHH: QLQLVESGGGLVQAGDSLRLSCAASGRTFSDYAMGWFRQAPGKELEFVARVNWSGLLTYYADSVKGRFTASRDNAKSTVYLQMNSLKPEDTAVYYCAQRGDSGSNFDPSGYRYWGQGTQVTVSS
8.63	0.037	4.33e+06	–	Z18-T61L (VHH, IMGT numbering; the methods describe vector and expression for Z18 and Z26; source: E. coli BL21 (DE3), purified (Ni-NTA, SEC)) VHH: QVQLVESGGGLVQAGDSLRLSCAASGRTFSGYAMGWFRQAPGKEREFVARINWSGLLTYYADSVKGRFTGSRDNAKNTVYLQMNSLKPEDTAVYYCAQRGDSGSNYDPSGYSYWGQGTQVTVSS
